Laboratory results taken from US20070071744A1 (published 2007).

Molecular target: T1, human glycoprotein VI (GPVI), native, on human platelets (human, UniProt Q9HCN6 21-339)
T1 sequence (looked up): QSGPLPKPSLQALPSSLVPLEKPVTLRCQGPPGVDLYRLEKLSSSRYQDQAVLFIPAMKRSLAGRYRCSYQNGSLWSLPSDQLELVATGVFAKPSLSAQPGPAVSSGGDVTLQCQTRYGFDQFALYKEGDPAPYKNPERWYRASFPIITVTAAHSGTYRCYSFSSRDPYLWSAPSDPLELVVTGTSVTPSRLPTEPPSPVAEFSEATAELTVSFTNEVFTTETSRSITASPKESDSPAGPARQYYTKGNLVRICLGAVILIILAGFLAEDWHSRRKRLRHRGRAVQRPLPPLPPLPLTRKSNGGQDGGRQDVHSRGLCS
Experiment: cell-based or functional assay

IC50 of inhibition of collagen-induced (3 µg/ml) human platelet aggregation ex vivo: 120 ng/mL
B1: hGP 5C4 Fab (Fab, V domains shown)
VH: EVKLQESGGGLVQPGRSLKLSCTASGFTFSDYFMSWVRQAPTRGLEWVASISSGGASAYWRDSVKGRFTISRDNAKSALYLQMDSLRSEDTATYFCARGELDFDYWGQGVMVAVSS
VL: ADPNSTLLSASVGDRVTLNCTASQNVYKNLAWYQQKLGEAPRLLLYSANSQTGIPSRFSGSGSGPDFTLTISSLQPEDVASYFCQQYYSGNTFGAGTKLELKR
